The assay has as its target AflJ (A. parasiticus BN9), yeast two-hybrid fusion (A. parasiticus) (UniProt O42716). In words: two-hybrid.
Sequence of UniProt O42716 (O42716 whole entry, the tested form may be a part): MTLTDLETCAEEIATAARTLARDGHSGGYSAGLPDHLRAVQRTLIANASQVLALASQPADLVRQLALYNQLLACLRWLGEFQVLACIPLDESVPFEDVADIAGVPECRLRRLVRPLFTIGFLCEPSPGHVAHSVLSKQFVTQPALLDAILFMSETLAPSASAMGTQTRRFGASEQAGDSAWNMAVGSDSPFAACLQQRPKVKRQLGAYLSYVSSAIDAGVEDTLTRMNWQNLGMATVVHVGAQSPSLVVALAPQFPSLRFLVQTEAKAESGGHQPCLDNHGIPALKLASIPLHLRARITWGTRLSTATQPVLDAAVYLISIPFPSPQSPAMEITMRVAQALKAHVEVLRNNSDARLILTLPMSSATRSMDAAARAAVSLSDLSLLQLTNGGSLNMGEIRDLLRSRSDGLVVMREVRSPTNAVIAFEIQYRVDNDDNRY

Turning to “AflR, Gal4 activation domain fusion (pGADT7) (from UniProt P43651 1-444) (natural protein)”, the colonies on QDO is 125 colonies.

These data come from PMC3528264.
